Source: patent publication US20220275067A1 (PROTHENA BIOSCIENCES, published 2022)

Target: T1, recombinant human 4R0N tau (human, UniProt P10636 2-758)
T1 construct: also called recombinant 4R0N human tau; P10636-6
Assay: SPR Biacore T200; antibody captured by anti-human Fc; tau as analyte; global 1:1 fit
Protocol: Target binding analysis was performed using a Biacore T200 to compare the binding affinity of humanized 9F5 variants to recombinant human 4R0N tau. Anti-Human Fc antibody was immobilized on sensor chip CM3 via amine coupling, and humanized 9F5 variants were captured to equivalent levels. Various concentrations of recombinant 4R0N human tau (ranging from 0.02 nM to 12.5 nM) were passed over the captured ligand at 50 μL/min in running buffer (HBS+0.05% P-20, 1 mg/mL BSA) for 180 seconds association/420 seconds dissociation as a single cycle. Data was blank subtracted to both an irrelevant sensor not containing antibody and 0 nM analyte concentration. Analysis was performed using a global 1:1 fit with Biacore Evaluation software.

T1 sequence (P10636 other isoform, or with tags, fused parts or gaps limits assumed): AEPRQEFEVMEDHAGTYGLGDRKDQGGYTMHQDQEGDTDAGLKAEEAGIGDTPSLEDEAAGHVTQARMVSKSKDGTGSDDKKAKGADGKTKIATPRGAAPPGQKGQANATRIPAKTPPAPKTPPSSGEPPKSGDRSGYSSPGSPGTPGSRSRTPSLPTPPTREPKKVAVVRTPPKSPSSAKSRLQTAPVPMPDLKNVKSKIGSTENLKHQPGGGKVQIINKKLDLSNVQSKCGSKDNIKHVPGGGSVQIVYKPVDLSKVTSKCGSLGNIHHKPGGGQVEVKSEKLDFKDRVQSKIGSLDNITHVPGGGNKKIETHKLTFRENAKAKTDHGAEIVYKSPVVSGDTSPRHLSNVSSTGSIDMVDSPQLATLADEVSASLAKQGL

Binder | Kd [pM] | koff [s⁻¹] | kon [M⁻¹ s⁻¹]
hu9F5VHv9/hu9F5VLv8 (antibody, V domains shown) VH: EVQLVQSGAEVKKPGATVKISCKASGFNIKDDYMNWVQQRPGKGLEWIGWIDPENGDTEYASKFQGRATMTADTSTNTAYMELSSLRSEDTAVYYCTTSNGWGQGTLVTVSS VL: DIVMTQSPFSLPVTPGESASISCRSSKSLLHSNGITYLYWYLQKPGQSPQLLIYQMSNLASGVPNRFSSSGSGTDFTLKISRVEAEDVGVYYCAQNLELPLTFGQGTKLEIK | 269 | 0.000429 | 1.72e+06
hu9F5VHv9/hu9F5VLv8_DIM5 (antibody, V domains shown) VH: EVQLVQSGAEVKKPGATVKISCKASGFNIKDDYMNWVQQRPGKGLEWIGWIDPENGDTEYASKFQGRATMTADTSTNTAYMELSSLRSEDTAVYYCTTSNGWGQGTLVTVSS VL: DIQMTQSPFSLPVTPGESASISCRSSKSLGHSNGITYLYWYQQKPGQSPQLLIYQGSNRASGVPNRFSSSGSGTDFTLKISRVEAEDVGVYYCAQNIELPLTFGQGTKLEIK | 169 | 0.000295 | 1.75e+06
hu9F5VHv9/hu9F5VLv8_DIM6 (antibody, V domains shown) VH: EVQLVQSGAEVKKPGATVKISCKASGFNIKDDYMNWVQQRPGKGLEWIGWIDPENGDTEYASKFQGRATMTADTSTNTAYMELSSLRSEDTAVYYCTTSNGWGQGTLVTVSS VL: DIQMTQSPFSLPVTPGESASISCRSSKSLDHSNGITYLYWYQQKPGQSPQLLIYQGSNRASGVPNRFSSSGSGTDFTLKISRVEAEDVGVYYCAQNIELPLTFGQGTKLEIK | 178 | 0.000272 | 1.53e+06
hu9F5VHv9/hu9F5VLv8_DIM1 (antibody, V domains shown) VH: EVQLVQSGAEVKKPGATVKISCKASGFNIKDDYMNWVQQRPGKGLEWIGWIDPENGDTEYASKFQGRATMTADTSTNTAYMELSSLRSEDTAVYYCTTSNGWGQGTLVTVSS VL: DIQMTQSPFSLPVTPGESASISCRSSKSLSHSNGITYLYWYQQKPGQSPQLLIYQGSNGASGVPNRFSSSGSGTDFTLKISRVEAEDVGVYYCAQNIELPLTFGQGTKLEIK | 844 | 0.00559 | 6.62e+06
hu9F5VHv9/hu9F5VLv8_DIM8 (antibody, V domains shown) VH: EVQLVQSGAEVKKPGATVKISCKASGFNIKDDYMNWVQQRPGKGLEWIGWIDPENGDTEYASKFQGRATMTADTSTNTAYMELSSLRSEDTAVYYCTTSNGWGQGTLVTVSS VL: DIQMTQSPFSLPVTPGESASISCRSSKSLGHSNGITYLYWYQQKPGQSPQLLIYQKSNRASGVPNRFSSSGSGTDFTLKISRVEAEDVGVYYCAQNIELPLTFGQGTKLEIK | 435 | 0.000576 | 1.32e+06
hu9F5VHv9/hu9F5VLv8_DIM3 (antibody, V domains shown) VH: EVQLVQSGAEVKKPGATVKISCKASGFNIKDDYMNWVQQRPGKGLEWIGWIDPENGDTEYASKFQGRATMTADTSTNTAYMELSSLRSEDTAVYYCTTSNGWGQGTLVTVSS VL: DIQMTQSPFSLPVTPGESASISCRSSKSLSHSNGITYLYWYQQKPGQSPQLLIYQGSNTASGVPNRFSSSGSGTDFTLKISRVEAEDVGVYYCAQNIELPLTFGQGTKLEIK | 600 | 0.00068 | 1.13e+06
hu9F5VHv9/hu9F5VLv8_DIM7 (antibody, V domains shown) VH: EVQLVQSGAEVKKPGATVKISCKASGFNIKDDYMNWVQQRPGKGLEWIGWIDPENGDTEYASKFQGRATMTADTSTNTAYMELSSLRSEDTAVYYCTTSNGWGQGTLVTVSS VL: DIQMTQSPFSLPVTPGESASISCRSSKSLDHSNGITYLYWYQQKPGQSPQLLIYQKSNRASGVPNRFSSSGSGTDFTLKISRVEAEDVGVYYCAQNIELPLTFGQGTKLEIK | 180 | 0.000424 | 2.36e+06
hu9F5VHv9/hu9F5VLv8_DIM2 (antibody, V domains shown) VH: EVQLVQSGAEVKKPGATVKISCKASGFNIKDDYMNWVQQRPGKGLEWIGWIDPENGDTEYASKFQGRATMTADTSTNTAYMELSSLRSEDTAVYYCTTSNGWGQGTLVTVSS VL: DIQMTQSPFSLPVTPGESASISCRSSKSLSHSNGITYLYWYQQKPGQSPQLLIYQGSNRASGVPNRFSSSGSGTDFTLKISRVEAEDVGVYYCAQNIELPLTFGQGTKLEIK | 299 | 0.000586 | 1.96e+06
hu9F5VHv9/hu9F5VLv8_DIM4 (antibody, V domains shown) VH: EVQLVQSGAEVKKPGATVKISCKASGFNIKDDYMNWVQQRPGKGLEWIGWIDPENGDTEYASKFQGRATMTADTSTNTAYMELSSLRSEDTAVYYCTTSNGWGQGTLVTVSS VL: DIQMTQSPFSLPVTPGESASISCRSSKSLSHSNGITYLYWYQQKPGQSPQLLIYQGSNRASGVPNRFSSSGSGTDFTLKISRVEAEDVGVYYCAQNGELPLTFGQGTKLEIK | 2630 | 0.00143 | 542000

Continued, values first:

Kd [pM] | koff [s⁻¹] | kon [M⁻¹ s⁻¹] | Binder
128 | 0.000326 | 2.54e+06 | hu9F5VHv9/hu9F5VLv8_DIM17 (antibody, V domains shown) VH: EVQLVQSGAEVKKPGATVKISCKASGFNIKDDYMNWVQQRPGKGLEWIGWIDPENGDTEYASKFQGRATMTADTSTNTAYMELSSLRSEDTAVYYCTTSNGWGQGTLVTVSS VL: DIQMTQSPFSLPVTPGESASISCRSSKSLSHSNGITYLYWYGQKPGQSPQLLIYQGSNTASGVPNRFSSSGSGTDFTLKISRVEAEDVGVYYCAQNIELPLTFGQGTKLEIK
3920 | 0.0741 | 1.89e+07 | hu9F5VHv9/hu9F5VLv8_DIM10 (antibody, V domains shown) VH: EVQLVQSGAEVKKPGATVKISCKASGFNIKDDYMNWVQQRPGKGLEWIGWIDPENGDTEYASKFQGRATMTADTSTNTAYMELSSLRSEDTAVYYCTTSNGWGQGTLVTVSS VL: DIQMTQSPFSLPVTPGESASISCRSSKSLSHSNGITYLYWYQQKPGQSPQLLIYQKSNGASGVPNRFSSSGSGTDFTLKISRVEAEDVGVYYCAQNIELPLTFGQGTKLEIK
266 | 0.000439 | 1.65e+06 | hu9F5VHv9/hu9F5VLv8_DIM13 (antibody, V domains shown) VH: EVQLVQSGAEVKKPGATVKISCKASGFNIKDDYMNWVQQRPGKGLEWIGWIDPENGDTEYASKFQGRATMTADTSTNTAYMELSSLRSEDTAVYYCTTSNGWGQGTLVTVSS VL: DIQMTQSPFSLPVTPGESASISCRSSKSLGHSNGITYLYWYGQKPGQSPQLLIYQGSNRASGVPNRFSSSGSGTDFTLKISRVEAEDVGVYYCAQNLELPLTFGQGTKLEIK
142 | 0.000188 | 1.33e+06 | hu9F5VHv9/hu9F5VLv8_DIM14 (antibody, V domains shown) VH: EVQLVQSGAEVKKPGATVKISCKASGFNIKDDYMNWVQQRPGKGLEWIGWIDPENGDTEYASKFQGRATMTADTSTNTAYMELSSLRSEDTAVYYCTTSNGWGQGTLVTVSS VL: DIQMTQSPFSLPVTPGESASISCRSSKSLGHSNGITYLYWYGQKPGQSPQLLIYQGSNTASGVPNRFSSSGSGTDFTLKISRVEAEDVGVYYCAQNIELPLTFGQGTKLEIK
77.2 | 0.00011 | 1.42e+06 | hu9F5VHv9/hu9F5VLv8_DIM11 (antibody, V domains shown) VH: EVQLVQSGAEVKKPGATVKISCKASGFNIKDDYMNWVQQRPGKGLEWIGWIDPENGDTEYASKFQGRATMTADTSTNTAYMELSSLRSEDTAVYYCTTSNGWGQGTLVTVSS VL: DIQMTQSPFSLPVTPGESASISCRSSKSLGHSNGITYLYWYGQKPGQSPQLLIYQGSNRASGVPNRFSSSGSGTDFTLKISRVEAEDVGVYYCAQNIELPLTFGQGTKLEIK
5070 | 0.0116 | 2.29e+06 | hu9F5VHv9/hu9F5VLv8_DIM9 (antibody, V domains shown) VH: EVQLVQSGAEVKKPGATVKISCKASGFNIKDDYMNWVQQRPGKGLEWIGWIDPENGDTEYASKFQGRATMTADTSTNTAYMELSSLRSEDTAVYYCTTSNGWGQGTLVTVSS VL: DIQMTQSPFSLPVTPGESASISCRSSKSLGHSNGITYLYWYQQKPGQSPQLLIYQKSNGASGVPNRFSSSGSGTDFTLKISRVEAEDVGVYYCAQNIELPLTFGQGTKLEIK
873 | 0.000732 | 839000 | hu9F5VHv9/hu9F5VLv8_DIM15 (antibody, V domains shown) VH: EVQLVQSGAEVKKPGATVKISCKASGFNIKDDYMNWVQQRPGKGLEWIGWIDPENGDTEYASKFQGRATMTADTSTNTAYMELSSLRSEDTAVYYCTTSNGWGQGTLVTVSS VL: DIQMTQSPFSLPVTPGESASISCRSSKSLGHSNGITYLYWYGQKPGQSPQLLIYQGSNTASGVPNRFSSSGSGTDFTLKISRVEAEDVGVYYCAQNGELPLTFGQGTKLEIK
355 | 0.000808 | 2.27e+06 | hu9F5VHv9/hu9F5VLv8_DIM16 (antibody, V domains shown) VH: EVQLVQSGAEVKKPGATVKISCKASGFNIKDDYMNWVQQRPGKGLEWIGWIDPENGDTEYASKFQGRATMTADTSTNTAYMELSSLRSEDTAVYYCTTSNGWGQGTLVTVSS VL: DIQMTQSPFSLPVTPGESASISCRSSKSLGHSNGITYLYWYGQKPGQSPQLLIYQGSNTASGVPNRFSSSGSGTDFTLKISRVEAEDVGVYYCAQNLELPLTFGQGTKLEIK
221 | 0.000429 | 1.94e+06 | hu9F5VHv9/hu9F5VLv8_DIM12 (antibody, V domains shown) VH: EVQLVQSGAEVKKPGATVKISCKASGFNIKDDYMNWVQQRPGKGLEWIGWIDPENGDTEYASKFQGRATMTADTSTNTAYMELSSLRSEDTAVYYCTTSNGWGQGTLVTVSS VL: DIQMTQSPFSLPVTPGESASISCRSSKSLGHSNGITYLYWYGQKPGQSPQLLIYQGSNRASGVPNRFSSSGSGTDFTLKISRVEAEDVGVYYCAQNGELPLTFGQGTKLEIK
44.7 | 9.39e-05 | 2.1e+06 | hu9F5VHv9/hu9F5VLv8_DIM18 (antibody, V domains shown) VH: EVQLVQSGAEVKKPGATVKISCKASGFNIKDDYMNWVQQRPGKGLEWIGWIDPENGDTEYASKFQGRATMTADTSTNTAYMELSSLRSEDTAVYYCTTSNGWGQGTLVTVSS VL: DIQMTQSPFSLPVTPGESASISCRSSKSLDHSNGITYLYWYGQKPGQSPQLLIYQGSNRASGVPNRFSSSGSGTDFTLKISRVEAEDVGVYYCAQNIELPLTFGQGTKLEIK
